Among the targets are LIMK2, P53671; MAGI2_3, Q86UL8; HTRA1, Q92743; MAGI2_2, Q86UL8; PDZRN4_1, Q6ZMN7; NHERF4_4, Q86UT5; DLG1_2, Q12959.
Holding throughout (assay): holdup assay
Common to all, as to set-up: key: below the threshold = too weak to quantify, mostly under pKd 3.1 to 4
Holding throughout (settings): plain residues with an end cap or a label only (N-terminal biotin on a linker: ado-ado)

Another assay addresses T1, FRMPD1, Q5SYB0.
T1 sequence (Q5SYB0 52-145, limits assumed, looked up): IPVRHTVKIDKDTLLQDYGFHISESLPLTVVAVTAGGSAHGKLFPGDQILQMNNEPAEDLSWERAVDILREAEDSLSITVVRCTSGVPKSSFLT

In the next assay the target is T2, DVL3, Q92997.
T2 sequence (Q92997 244-331, limits assumed, looked up): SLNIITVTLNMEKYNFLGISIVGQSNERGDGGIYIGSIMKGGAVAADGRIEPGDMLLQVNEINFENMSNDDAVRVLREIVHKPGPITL

For a further assay, the target named is T3, DFNB31_2, Q9P202.
T3 sequence (Q9P202 274-371, limits assumed, looked up): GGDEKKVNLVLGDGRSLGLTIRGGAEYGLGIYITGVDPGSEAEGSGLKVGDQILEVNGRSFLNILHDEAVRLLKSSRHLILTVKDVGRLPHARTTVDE

The target in another assay is T4, APBA1_1, Q02410.
T4 sequence (Q02410 651-752, limits assumed, looked up): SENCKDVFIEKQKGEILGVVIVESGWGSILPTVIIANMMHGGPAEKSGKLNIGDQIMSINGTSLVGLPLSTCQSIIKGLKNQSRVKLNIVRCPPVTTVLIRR

A further assay deals with T5, TIAM2, Q8IVF5.
T5 sequence (Q8IVF5 885-986, limits assumed, looked up): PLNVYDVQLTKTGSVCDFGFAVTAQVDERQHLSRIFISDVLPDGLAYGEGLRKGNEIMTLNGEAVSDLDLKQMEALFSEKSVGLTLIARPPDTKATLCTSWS

For another assay, the target named is T6, TJP3_3, O95049.
T6 sequence (O95049 375-456, limits assumed, looked up): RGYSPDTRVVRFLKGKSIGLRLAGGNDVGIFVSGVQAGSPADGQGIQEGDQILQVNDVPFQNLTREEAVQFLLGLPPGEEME

The next assay has as its target T7, DFNB31_3, Q9P202.
T7 sequence (Q9P202 811-907, limits assumed, looked up): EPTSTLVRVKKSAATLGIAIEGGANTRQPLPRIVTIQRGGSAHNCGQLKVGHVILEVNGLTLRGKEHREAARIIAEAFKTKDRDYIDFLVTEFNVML

For a further assay, the target named is T8, LIN7C, Q9NUP9.
T8 sequence (Q9NUP9 88-185, limits assumed, looked up): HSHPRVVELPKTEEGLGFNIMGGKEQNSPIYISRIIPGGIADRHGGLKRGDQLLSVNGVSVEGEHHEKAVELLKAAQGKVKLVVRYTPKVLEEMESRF

The target in the next assay is T9, DFNB31_1, Q9P202.
T9 sequence (Q9P202 135-233, limits assumed, looked up): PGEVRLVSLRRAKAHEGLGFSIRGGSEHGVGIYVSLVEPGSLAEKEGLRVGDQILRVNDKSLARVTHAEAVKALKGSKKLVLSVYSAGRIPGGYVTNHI

The next assay concerns the target T10, TX1BP3, O14907.
T10 sequence (O14907 10-122, limits assumed, looked up): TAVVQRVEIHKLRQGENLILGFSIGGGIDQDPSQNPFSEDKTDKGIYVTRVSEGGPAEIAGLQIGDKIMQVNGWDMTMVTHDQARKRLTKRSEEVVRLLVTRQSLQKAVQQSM

Another assay has as its target T11, RAPGEF6, Q8TEU7.
T11 sequence (Q8TEU7 525-625, limits assumed, looked up): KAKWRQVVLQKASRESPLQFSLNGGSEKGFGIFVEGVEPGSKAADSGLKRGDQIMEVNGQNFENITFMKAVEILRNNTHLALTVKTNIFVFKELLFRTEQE

In a further assay the target is T12, CARD11, Q9BXL7.
T12 sequence (Q9BXL7 662-765, limits assumed, looked up): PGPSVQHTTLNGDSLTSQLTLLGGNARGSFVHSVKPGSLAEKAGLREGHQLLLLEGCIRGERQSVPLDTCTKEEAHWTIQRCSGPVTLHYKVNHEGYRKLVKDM

The next assay has as its target T13, SHANK1, Q9Y566.
T13 sequence (Q9Y566 658-767, limits assumed, looked up): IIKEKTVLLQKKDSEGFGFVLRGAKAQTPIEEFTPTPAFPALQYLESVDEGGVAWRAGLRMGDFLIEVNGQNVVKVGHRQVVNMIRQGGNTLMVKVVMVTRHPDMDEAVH

The target in a further assay is T14, GRIP1_5, Q9Y3R0.
T14 sequence (Q9Y3R0 568-668, limits assumed, looked up): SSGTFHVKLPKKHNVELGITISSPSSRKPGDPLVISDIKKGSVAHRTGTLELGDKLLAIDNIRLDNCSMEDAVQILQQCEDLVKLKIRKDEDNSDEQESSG

For a further assay, the target named is T15, HTRA4, P83105.
T15 sequence (P83105 378-476, limits assumed, looked up): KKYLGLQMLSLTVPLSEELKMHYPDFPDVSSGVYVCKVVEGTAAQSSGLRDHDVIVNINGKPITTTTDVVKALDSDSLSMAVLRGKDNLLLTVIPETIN

PDZRN4_1, Q6ZMN7, sequence (Q6ZMN7 213-318): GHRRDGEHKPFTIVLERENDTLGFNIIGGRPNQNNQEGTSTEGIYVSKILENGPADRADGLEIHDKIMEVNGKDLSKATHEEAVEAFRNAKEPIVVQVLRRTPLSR
NHERF4_4, Q86UT5, sequence (Q86UT5 464-550): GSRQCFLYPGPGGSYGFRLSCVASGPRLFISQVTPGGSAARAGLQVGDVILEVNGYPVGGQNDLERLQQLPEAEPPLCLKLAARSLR
DLG1_2, Q12959, sequence (Q12959 314-412): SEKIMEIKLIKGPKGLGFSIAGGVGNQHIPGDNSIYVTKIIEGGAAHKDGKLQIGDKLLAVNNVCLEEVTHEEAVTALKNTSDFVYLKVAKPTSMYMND
MAGI2_2, Q86UL8, sequence (Q86UL8 410-522): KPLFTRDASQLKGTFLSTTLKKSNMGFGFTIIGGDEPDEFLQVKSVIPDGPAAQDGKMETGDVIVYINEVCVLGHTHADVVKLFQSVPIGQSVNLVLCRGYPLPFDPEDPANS
MAGI2_3, Q86UL8, sequence (Q86UL8 600-682): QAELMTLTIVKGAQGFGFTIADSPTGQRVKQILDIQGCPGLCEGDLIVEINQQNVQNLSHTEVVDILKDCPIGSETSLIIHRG
HTRA1, Q92743, sequence (Q92743 360-477): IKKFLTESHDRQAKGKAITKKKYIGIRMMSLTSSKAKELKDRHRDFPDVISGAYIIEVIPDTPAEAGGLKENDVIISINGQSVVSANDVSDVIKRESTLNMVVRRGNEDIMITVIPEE
LIMK2, P53671, sequence (P53671 143-248): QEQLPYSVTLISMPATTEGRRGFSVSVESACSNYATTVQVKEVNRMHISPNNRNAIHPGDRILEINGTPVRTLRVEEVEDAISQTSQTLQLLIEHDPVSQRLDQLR

With GEDRSPPTAL [MKNK1, Q9BUB5], the negative logarithm of the Kd (pKd) result with LIMK2, P53671 is given as “below the threshold”; with MAGI2_3, Q86UL8 it was “below the threshold”; with FRMPD1, Q5SYB0 it was “below the threshold”; with DVL3, Q92997, “below the threshold”; with DFNB31_2, Q9P202 it was “below the threshold”; in the assay with APBA1_1, Q02410, “below the threshold”. Besides, the negative-log Kd (pKd) entry in the assay with TIAM2, Q8IVF5 was “below the threshold”; with HTRA1, Q92743, “below the threshold”; with TJP3_3, O95049, “below the threshold”; with MAGI2_2, Q86UL8, “below the threshold”; with DFNB31_3, Q9P202, “below the threshold”; in the assay with LIN7C, Q9NUP9, 4.02. Besides, the pKd entry is recorded as “below the threshold” with DFNB31_1, Q9P202; “below the threshold” with TX1BP3, O14907; “below the threshold” with PDZRN4_1, Q6ZMN7; “below the threshold” in the assay with NHERF4_4, Q86UT5; “below the threshold” with RAPGEF6, Q8TEU7; “below the threshold” in the assay with DLG1_2, Q12959. The pKd entry with CARD11, Q9BXL7 was “below the threshold”; with SHANK1, Q9Y566 it was “below the threshold”; in the assay with GRIP1_5, Q9Y3R0, “below the threshold”; with HTRA4, P83105, 3.8.

Take GIKKITSTAL [RPS6KA3, P51812]: the negative logarithm of the Kd (pKd) result is “below the threshold” with LIMK2, P53671; 3.51 with MAGI2_3, Q86UL8; “below the threshold” in the assay with FRMPD1, Q5SYB0; “below the threshold” with DVL3, Q92997; “below the threshold” in the assay with DFNB31_2, Q9P202; “below the threshold” with APBA1_1, Q02410. Also, the pKd entry is “below the threshold” with TIAM2, Q8IVF5; 3.58 in the assay with HTRA1, Q92743; “below the threshold” with TJP3_3, O95049; 4.16 with MAGI2_2, Q86UL8; 4.23 with DFNB31_3, Q9P202; “below the threshold” in the assay with LIN7C, Q9NUP9. Also, the negative logarithm of the Kd (pKd) is 4.39 with DFNB31_1, Q9P202; 4.59 with TX1BP3, O14907; 4.6 with PDZRN4_1, Q6ZMN7; 3.99 in the assay with NHERF4_4, Q86UT5; “below the threshold” with RAPGEF6, Q8TEU7; 4.32 in the assay with DLG1_2, Q12959. Also, the negative logarithm of the Kd (pKd) result was “below the threshold” in the assay with CARD11, Q9BXL7; 5.16 with SHANK1, Q9Y566; “below the threshold” in the assay with GRIP1_5, Q9Y3R0; “below the threshold” with HTRA4, P83105.

Take NNNVVKVDSV [MTNR1A, P48039]: the negative-log Kd (pKd) result with LIMK2, P53671 is recorded as “below the threshold”; in the assay with MAGI2_3, Q86UL8, “below the threshold”; in the assay with FRMPD1, Q5SYB0, “below the threshold”; with DVL3, Q92997, “below the threshold”; with DFNB31_2, Q9P202, “below the threshold”; with APBA1_1, Q02410 it was “below the threshold”. Also, the negative logarithm of the Kd (pKd) was 3.77 in the assay with TIAM2, Q8IVF5; “below the threshold” in the assay with HTRA1, Q92743; “below the threshold” in the assay with TJP3_3, O95049; “below the threshold” in the assay with MAGI2_2, Q86UL8; 3.93 with DFNB31_3, Q9P202; “below the threshold” with LIN7C, Q9NUP9. The negative-log Kd (pKd) result in the assay with DFNB31_1, Q9P202 is recorded as “below the threshold”; with TX1BP3, O14907 it was “below the threshold”; with PDZRN4_1, Q6ZMN7 it was “below the threshold”; with NHERF4_4, Q86UT5 it was “below the threshold”; in the assay with RAPGEF6, Q8TEU7, “below the threshold”; with DLG1_2, Q12959, “below the threshold”. The negative-log Kd (pKd) entry was “below the threshold” with CARD11, Q9BXL7; “below the threshold” with SHANK1, Q9Y566; “below the threshold” with GRIP1_5, Q9Y3R0; 3.82 in the assay with HTRA4, P83105.

Take LPAVCYDIDI [PTTG2, Q9NZH5]: the pKd entry in the assay with LIMK2, P53671 is “below the threshold”; with MAGI2_3, Q86UL8, “below the threshold”; with FRMPD1, Q5SYB0 it was “below the threshold”; with DVL3, Q92997 it was “below the threshold”; with DFNB31_2, Q9P202, “below the threshold”; in the assay with APBA1_1, Q02410 it was “below the threshold”. For the same molecule, the pKd was 3.87 with TIAM2, Q8IVF5; 3.9 with HTRA1, Q92743; “below the threshold” with TJP3_3, O95049; “below the threshold” with MAGI2_2, Q86UL8; 3.9 with DFNB31_3, Q9P202; 4.01 with LIN7C, Q9NUP9. Besides, the pKd result with DFNB31_1, Q9P202 is “below the threshold”; with TX1BP3, O14907, 4.09; with PDZRN4_1, Q6ZMN7, “below the threshold”; with NHERF4_4, Q86UT5 it was 4.9; with RAPGEF6, Q8TEU7 it was “below the threshold”; in the assay with DLG1_2, Q12959, “below the threshold”. The negative logarithm of the Kd (pKd) result was “below the threshold” in the assay with CARD11, Q9BXL7; “below the threshold” with SHANK1, Q9Y566; “below the threshold” with GRIP1_5, Q9Y3R0; 3.96 with HTRA4, P83105.

As for SVTSERETNI [SLC16A7, O60669], the negative logarithm of the Kd (pKd) entry with LIMK2, P53671 was “below the threshold”; with MAGI2_3, Q86UL8, “below the threshold”; with FRMPD1, Q5SYB0, “below the threshold”; with DVL3, Q92997 it was “below the threshold”; with DFNB31_2, Q9P202, “below the threshold”; with APBA1_1, Q02410 it was “below the threshold”. For the same molecule, the pKd in the assay with TIAM2, Q8IVF5 was 3.83; in the assay with HTRA1, Q92743, “below the threshold”; in the assay with TJP3_3, O95049, “below the threshold”; with MAGI2_2, Q86UL8, “below the threshold”; with DFNB31_3, Q9P202 it was 3.97; in the assay with LIN7C, Q9NUP9 it was 4.11. Also, the negative-log Kd (pKd) with DFNB31_1, Q9P202 is 4.68; in the assay with TX1BP3, O14907 it was “below the threshold”; with PDZRN4_1, Q6ZMN7, “below the threshold”; with NHERF4_4, Q86UT5, “below the threshold”; with RAPGEF6, Q8TEU7 it was “below the threshold”; with DLG1_2, Q12959 it was 4.42. Besides, the pKd result with CARD11, Q9BXL7 is “below the threshold”; with SHANK1, Q9Y566, “below the threshold”; with GRIP1_5, Q9Y3R0, “below the threshold”; with HTRA4, P83105, “below the threshold”.

The record behind these values is publication PMC9482650, “Quantitative fragmentomics allow affinity mapping of interactomes” (Nature Communications, 2022).
